A short description of the data set: yeast display, Sf9 membrane polyspecificity reagent, FACS + sequencing; frameworks hold sequencing errors. A digest of the protocol:
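Galactose induction of a Saccharomyces cerevisiae BJ5465 synthetic nanobody display library ran 36–48 hours. The cells were then stained for 1 hour at 4 °C with 10% biotinylated, detergent-solubilized Sf9 membrane reagent, pulled down on streptavidin microbeads and FACS-sorted into low and high (top ~1%) gates on expression and reagent-binding fluorescence. Labels for polyreactivity follow the gate of origin.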
As to “QVQLVESGGGLVQAGGSLRLICAASGGTFSHNDMGWYRQAPGKEMELVASINSGGSTNYADSVKGRFTISRDNAKNTVYLQMNSLKPEDSAVYYCAADVEGWTVESDVYRVGYDYWGHGTQVTVSS”, the “polyreactivity (PSR sort gate)” value is given as “low polyreactivity”.

Consider “QVQLVESGGGLVQAGGSLRLICAASGIIFAYNAMGWYRQAPGKESELVAAISVIGGTTYYADSVKGRFTMSRDNAKNTVYLRMNSLKPEDSAVYYCAVDSVQYGGGYERLHELYYWGQGTQVTVSS”, for which the “polyreactivity (PSR sort gate)” value is reported as “low polyreactivity”.

On to “QVQLVESGGGLVQAGGSLRLICAASGIIFDSYAMGWYSQEPGKERELVAAITSDSGRTYYADSVKGRFTISRDNAKNNVYLEMNSLKPEDTAVYYCAKRWDGPYDYWGQGTQVTVSS”, for which the “polyreactivity (PSR sort gate)” value is reported as “low polyreactivity”.

As to “QVQLVESGGGLVQAGGSLRLICAASGIIFDVYAMGWYRQAPGKERELVAAISYGGGTTYYADSVKGRFTISRDNAKNTVYLQMNSLKPEDTAVYYCAADSYRSIGDDYWGQGTQVTVSS”, the “polyreactivity (PSR sort gate)” value was “high polyreactivity”.

For “QVQLVESGGGLVQAGGSLRLICAASGIIFSEYAMGWYRQAPGKERELVAVITSGGSTYYADSVKGRFTISRDNAKNTVYLQMNSLKPEDTAVYYCAARGYRYPMYWGQGTQVTVSS”, the “polyreactivity (PSR sort gate)” value is listed as “high polyreactivity”.

As to “QVQLVESGGGLVQAGGSLRLICAASGIIFVRYVMGWYRQAPGKEMELVAAINWSGGSTYYADSVKGRFTISRDNAKYTVYLQMNSLKPEDTAVYFCCAGSARDDDYWGQGTQVTVSS”, the “polyreactivity (PSR sort gate)” value is reported as “high polyreactivity”.

In the case of “QVQLVESGGGLVQAGGSLRLICAASGITFRLNVMGWDRQAPGKERELVARISRAGSTKYADSVKGRFTISRDNAKNTVYLQMNCLKPEDTAVYYCNRYYRRATKVGYWGQGTQVTVSS”, the “polyreactivity (PSR sort gate)” value is given as “high polyreactivity”.

Take “QVQLVESGGGLVQAGGSLRLICAASGITFYDYAMGWYRQAPGKERELVAVITRRGGSTYYADSVKGRFTISRDNAKNTVYLQMNSLKPEDTAVYYCAADWRGWSFVRGDDYWGQGTQVTVSS”: the “polyreactivity (PSR sort gate)” value is “high polyreactivity”.

Take “QVQLVESGGGLVQAGGSLRLICAASGLIFAVYAMGWYRQAPGKERELVAGISASAASTYYADSVKGRFTISRDNAKNTVFLQMNSLNPEDTAVYYCAADFYWFWTYGTLWYGYEYWGLGTQVTVSS”: the “polyreactivity (PSR sort gate)” value was “high polyreactivity”.

For “QVQLVESGGGLVQAGGSLRLICAASGLIFDYYRMGWYRQATGKQRELVAAITSSGSRTYYADSVKGRFTISRDNAKKTVYLQMNSLNPEDTAVYFCARGGGRRKGLVDYWGQGTQVTVSS”, the “polyreactivity (PSR sort gate)” value was “low polyreactivity”.

“QVQLVESGGGLVQAGGSLRLICAASGLIFYRYAMGWYRPEPGKERELVAVISRGGSTFYADSVKGRFTISRDNAKNTVYLQMNSLTPEDTAVYFCAAAQTSQAYRYWYYYWGQGTQVTVSW”: the “polyreactivity (PSR sort gate)” value was “high polyreactivity”.

In the case of “QVQLVESGGGLVQAGGSLRLICAASGLTFGWYAMGWYRQAPGKERELVAAITYDGDSTYYADSVKGRFTISRDNAKNTVYLQMNSLKPEDTAVYYCAAEYGYGEMDSWGQGTQVTVSS”, the “polyreactivity (PSR sort gate)” value is on record as “high polyreactivity”.

With “QVQLVESGGGLVQAGGSLRLICAASGLTFTPNAMGWYRQAPWKEREFVAAITWRGGRTYYADSVKGRFTISRDNAKNTVYLQMNSLKPEDTAVYYCAVTYRPTDQLDYWGQGTQVTVSS”, the “polyreactivity (PSR sort gate)” value is “high polyreactivity”.

For “QVQLVESGGGLVQAGGSLRLICAASGLTFVTYAMGWYRQAPGKERELVAAITWSVGGTTYYADSVKGRFTISRDNAKNTVYLQMNSLKPEDTAVYYCAAESYSYYYDYYYWGQGTQVTVSS”, the “polyreactivity (PSR sort gate)” value is on record as “high polyreactivity”.

Consider “QVQLVESGGGLVQAGGSLRLICAASGNIFAVYAMGWYRQAPGKERELVAAITTGTNTYADSVKGRFTISRDNAKNNVYLQMNSLKPEDTAVYFCAARYYRPLDYWGQGTQVTVSS”, for which the “polyreactivity (PSR sort gate)” value is “low polyreactivity”.

“QVQLVESGGGLVQAGGSLRLICAASGNIFYIYAMVWDRQAPWKERELVAAISWSCCSTYYADSVKGRFTISRDNAKNTVYCQMNSLKPEDTSVYYCDVEFTPKRWVSYRTMYSWGQGTQVTVSS”: the “polyreactivity (PSR sort gate)” value is given as “high polyreactivity”.

As for “QVQLVESGGGLVQAGGSLRLICAASGNTFYGYAMGWYRQAPGKERELVASITLSGDSTYYADSVKGRFTISRDNAKNTVYVQMNSLKPEDTAVYYCAGVYTYPLGYYHDTYDYWGQGTQVTVSS”, the “polyreactivity (PSR sort gate)” value is “low polyreactivity”.

With “QVQLVESGGGLVQAGGSLRLICAASGRIFGPYAMGWYRQAPGKERELVASISYSGGSTYYADSVKGRFTISRDNAKNTVYLQMNSLKPDDTAVYYCAKGGYWRGYNYWGQGTQVTVSS”, the “polyreactivity (PSR sort gate)” value was “low polyreactivity”.

As to “QVQLVESGGGLVQAGGSLRLICAASGRIFHYYMGWYRQAPGKEMELVAVISSGDGTYYADSVKGRFTISRDNAKYTFYLQMNSLKPEDTAVYYWAADAPREYDDHYKYDDDYCGQGTQVTVSS”, the “polyreactivity (PSR sort gate)” value was “low polyreactivity”.

As for “QVQLVESGGGLVQAGGSLRLICAASGRIFIYYAMGWYRQAPGKERELVAAITGRDGSTYYADSVKGRFTISRDNAKNTVDLQKISLKPEDTAVYYCAASRFYFRRTFGGYPKLASYDYWGQGTQVTVSS”, the “polyreactivity (PSR sort gate)” value is recorded as “low polyreactivity”.

“QVQLVESGGGLVQAGGSLRLICAASGRIFPGYTMGWYRQAPGKEREFFAAISYSGGSTYADSVKGRFTISRDNAKNTVYLQMNSLKPEDTAVYYCAVVLQHWLDMYYWGQVTQVTVSS”: the “polyreactivity (PSR sort gate)” value is given as “low polyreactivity”.

Consider “QVQLVESGGGLVQAGGSLRLICAASGRIFQIYAMGWYRQAPGKEREVVAAISSGGTTYYADSVKGRFTISRDNAKNTVYLQMNSLKPEDTAVYYCAAVAWDLYSDGQEYNYWGQGPQVTVSS”, for which the “polyreactivity (PSR sort gate)” value was “high polyreactivity”.

For “QVQLVESGGGLVQAGGSLRLICAASGRIFRGYVMGWYRQAPGKERELVASIDRSGASTYYADSVKGRFTISRDNAKNTVYLQMNSLKPEDTAVYYCNALVYLRTSRYYYWGQGTQVTVSS”, the “polyreactivity (PSR sort gate)” value was “high polyreactivity”.

For “QVQLVESGGGLVQAGGSLRLICAASGRIFRRNVMGWYRQAPGKDRELVAAIRGTGSTTYADSVKGRFTISRDNAKNTVYLQMNSLKPEDTAVYYCNAYKGQTGGGGRYGYWGQGTQVTVSS”, the “polyreactivity (PSR sort gate)” value is listed as “high polyreactivity”.

As to “QVQLVESGGGLVQAGGSLRLICAASGRIFRVNAMGWYIQAPGKERELVAGITWSGGSTYYADSVKGRFTISRDNAKNTVYLQMNSLQPEDTAVYSCNAEYSPSYLFYWYEYIYWGQGSQVTVSS”, the “polyreactivity (PSR sort gate)” value is recorded as “high polyreactivity”.

On to “QVQLVESGGGLVQAGGSLRLICAASGRIFTYNAMGWYRQAPGKERELVARITSGGNTNYADSVKGRFTISRDNAKNTVYLQMNSLKPEDTAVYYCATGLFWFTNRYGSWGQGTQVTVSS”, for which the “polyreactivity (PSR sort gate)” value was “low polyreactivity”.

Consider “QVQLVESGGGLVQAGGSLRLICAASGRIFYHNAMGWYRQAPGKERELDAAITWSGGSTYYADSVKGRFTISRDNAKNTVYLQMNSLKPEDTAVYYCAALWLVNHYYPSQDYDYWGQGSQVTVSS”, for which the “polyreactivity (PSR sort gate)” value is reported as “high polyreactivity”.

For “QVQLVESGGGLVQAGGSLRLICAASGRIIPSYSMGWYRQAPAKEREFVAVIRSSVDGTYYADSVKGRFTISRDYAKNTVYLHMNSLNPDDTSVYYFSADSYPFFIRNLYPVLEGEYGHWGQGTQVNVSS”, the “polyreactivity (PSR sort gate)” value is “low polyreactivity”.

In the case of “QVQLVESGGGLVQAGGSLRLICAASGRISGRYAMGWYRQAPGKERELVAAITSRGGRTYYADSVKGRFTISRDNAKNTVYLQMNSLKPEDTAVYYCIAVGGYWFDYWGQGTQVTVSS”, the “polyreactivity (PSR sort gate)” value was “high polyreactivity”.

Turning to “QVQLVESGGGLVQAGGSLRLICAASGRIYRYYAMGWYRQAPGKERELVAAITSDGRTYYADSVKGRFTISRDNAKNTVYLQMNSLKPEDTAVYYCAADHHSYRYGGYYYWGQGTQVTVSS”, the “polyreactivity (PSR sort gate)” value is on record as “low polyreactivity”.

These data come from the nanobody polyreactivity screen of Harvey et al. (2022).
